Measurements taken from patent publication US20040213795A1.

Target: Human PD-1 fusion protein (human) (UniProt Q15116)
Assay: ELISA on coated human PD-1/IgG chimera (2.5 ug/ml), HRP anti-murine antibody

Sequence of Human PD-1 fusion protein (human) (Q15116 other isoform, or with tags, fused parts or gaps): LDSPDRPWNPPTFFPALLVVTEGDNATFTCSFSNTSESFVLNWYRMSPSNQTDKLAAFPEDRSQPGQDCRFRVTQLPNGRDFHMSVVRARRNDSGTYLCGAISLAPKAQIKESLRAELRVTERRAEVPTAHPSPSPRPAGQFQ

EC50 (read off the curve): 1 µg/mL
Substance: Murine anti-human PD-1 antibody J110
